What was measured:
[1] = target: T1, SHMT1 (cytosolic serine hydroxymethyltransferase) WT (Homo sapiens, UniProt P34896 1-483); assay: EMSA
T1 sequence: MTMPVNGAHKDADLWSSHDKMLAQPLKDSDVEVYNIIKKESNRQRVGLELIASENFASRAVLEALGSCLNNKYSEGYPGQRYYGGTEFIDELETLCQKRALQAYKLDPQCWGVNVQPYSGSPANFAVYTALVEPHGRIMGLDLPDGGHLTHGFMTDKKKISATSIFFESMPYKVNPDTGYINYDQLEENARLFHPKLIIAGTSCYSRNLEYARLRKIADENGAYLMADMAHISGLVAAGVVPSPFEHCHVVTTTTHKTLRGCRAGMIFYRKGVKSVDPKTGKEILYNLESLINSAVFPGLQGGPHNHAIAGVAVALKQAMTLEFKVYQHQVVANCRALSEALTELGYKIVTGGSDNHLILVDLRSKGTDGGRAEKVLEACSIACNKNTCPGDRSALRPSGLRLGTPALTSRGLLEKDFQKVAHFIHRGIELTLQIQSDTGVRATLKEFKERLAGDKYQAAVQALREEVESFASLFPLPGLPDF

[2] = target: the molecule itself; assay: cryo-EM structure

B1: UTR2 1-50 Rv (reverse complement) (structured_RNA)
RNA: UGUGGCCUUUUGGGAAUUGUAGUUCGCCCACUCACCGCUUUUUUCUUUAU
- binding result [1]: binds

B2: human cytosolic serine hydroxymethyltransferase (SHMT1), wild type (enzyme)
chain: DADLWSSHDKMLAQPLKDSDVEVYNIIKKESNRQRVGLELIASENFASRAVLEALGSCLNNKYSEGYPGQRYYGGTEFIDELETLCQKRALQAYKLDPQCWGVNVQPYSGSPANFAVYTALVEPHGRIMGLDLPDGGHLTHGFMTDKKKISATSIFFESMPYKVNPDTGYINYDQLEENARLFHPKLIIAGTSCYSRNLEYARLRKIADENGAYLMADMAHISGLVAAGVVPSPFEHCHVVTTTTHKTLRGCRAGMIFYRKGVKSVDPKTGKEILYNLESLINSAVFPGLQGGPHNHAIAGVAVALKQAMTLEFKVYQHQVVANCRALSEALTELGYKIVTGGSDNHLILVDLRSKGTDGGRAEKVLEACSIACNKNTCPGDRSALRPSGLRLGTPALTSRGLLEKDFQKVAHFIHRGIELTLQIQSDTGVRATLKEFKERLAGDKYQAAVQALREEVESFASLFPLPGL
- stoichiometry N [2]: 4
